Experimental data as given in the supplement of paper PMC6757056.
± gives the standard deviation of the averaged measurements.

B1: library; a variant is named by its letters at N, in order (parent)
chain: GCUGUCACCGGUGCUUGGUACGUUAUAUUCAGCCGGUCUGAUGAGUCUNNNNNNAGACGAAACAGC

What was measured:
(6R,S)-folinic acid [1] = variants of: B1; test: FACS-Seq fitted mean relative fluorescence mCherry/BFP without ligand (log10 relative fluorescence); HEK293T overexpressing SLC46A1; higher = higher reporter protein expression; details: without (6R,S)-folinic acid; ligand present: no
Procedure, shortened: (§1)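 Genomic DNA from 6 mCherry/BFP sort bins was PCR-amplified, barcoded and sequenced on MiSeq. The sorted cells were enriched HEK293T libraries, lentivirally transduced with a ribozyme-switch mCherry reporter and an EF1α-BFP marker, incubated with or without ligand for 48 h. Fluorescence derives from a normal fit to the bin counts. The fit was on log10(mCherry/BFP), and means were scaled to five spiked-in control ribozymes.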

(6R,S)-folinic acid [2] = variants of: B1; test: normalized RNA/DNA level without ligand (relative to sTRSVctl = 100) (log10 (% of sTRSVctl)); HEK293T overexpressing SLC46A1; higher = less ribozyme self-cleavage, higher mRNA level; details: without (6R,S)-folinic acid; ligand present: no
Procedure, shortened: (§2)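 Library plasmids carrying ribozyme switches linked to mCherry, or to eGFP in some ligand experiments, were transfected into HEK293T at 4 µg per 6-well well, with any ligand added 1 h earlier. Seventy-two hours on, total RNA was extracted with EDTA and reverse-transcribed, amplified, barcoded and sequenced. RNA level was RNA over DNA reads normalized to a spiked-in non-cleaving sequence or to the top sequences, then scaled and log-transformed. The top set was 25 sequences, the transform was ×100 and log10, and sequences needed ≥100 DNA reads.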

(6R,S)-folinic acid [3] = variants of: B1; test: FACS-Seq fitted mean relative fluorescence mCherry/BFP with ligand (log10 relative fluorescence); HEK293T overexpressing SLC46A1; ligand concentration (+) FACS-Seq: 6 mM; higher = higher reporter protein expression; details: with (6R,S)-folinic acid; ligand present: yes
Procedure, shortened: as §1

(6R,S)-folinic acid [4] = variants of: B1; test: normalized RNA/DNA level with ligand (relative to sTRSVctl = 100) (log10 (% of sTRSVctl)); HEK293T overexpressing SLC46A1; ligand concentration (+) RNA-Seq: 6 mM; higher = less ribozyme self-cleavage, higher mRNA level; details: with (6R,S)-folinic acid; ligand present: yes
Procedure, shortened: as §2

Variant | FACS-Seq fitted mean (log10) ((6R,S)-folinic acid [1]) | normalized RNA/DNA level without ligand (log10) ((6R,S)-folinic acid [2]) | FACS-Seq fitted mean (log10) ((6R,S)-folinic acid [3]) | normalized RNA/DNA level with ligand (log10) ((6R,S)-folinic acid [4])
CUAAGU | 0.502 ± 0.033 | 2 ± 0.022 | 0.535 ± 0.079 | 1.995 ± 0.0037
AUAGAU | 0.365 ± 0.1 | 1.925 ± 0.011 | 0.406 ± 0.1 | 2 ± 0.054
AUAGAC | 0.4594 ± 0.0035 | 1.968 ± 0.0041 | 0.536 ± 0.13 | 1.98 ± 0.017
AUAGAG | 0.0276 ± 0.0023 | 1.52 ± 0.0028 | 0.431 ± 0.14 | 1.89 ± 0.034
AGUGGA | 0.399 ± 0.14 | 1.963 ± 0.018 | 0.327 ± 0.082 | 2.015 ± 0.0071
UUAGGG | 0.0949 ± 0.0093 | 1.776 ± 0.008 | 0.324 ± 0.11 | 2 ± 0.021
UUAGGC | 0.366 ± 0.0042 | 1.974 ± 0.0042 | 0.465 ± 0.26 | 2 ± 0.058
UUAGGA | 0.674 ± 0.033 | 1.879 ± 0.014 | 0.677 ± 0.022 | 2 ± 0.045
UGUUAA | -0.0426 ± 0.13 | 1.92 ± 0.024 | 0.191 ± 0.081 | 1.98 ± 0.022
UGUUAC | 0.317 ± 0.16 | 1.947 ± 0.018 | 0.39 ± 0.013 | 1.99 ± 0.021
UGUUAG | 0.447 ± 0.11 | 1.63 ± 0.04 | 0.762 ± 0.15 | 1.929 ± 0.016
GGUGAC | 0.359 ± 0.087 | 2.027 ± 0.008 | 0.217 ± 0.074 | 2.01 ± 0.037
GGUGAU | 0.294 ± 0.15 | 2.015 ± 0.013 | 0.491 ± 0.23 | 2.028 ± 0.018
UGUCGG | 0.0192 ± 0.057 | 1.66 ± 0.015 | 0.166 ± 0.29 | 1.94 ± 0.043
UGUCGU | 0.152 ± 0.076 | 1.95 ± 0.012 | 0.267 ± 0.017 | 2 ± 0.021
UUAGAG | 0.029 ± 0.12 | 1.7074 ± 0.0017 | 0.476 ± 0.11 | 1.95 ± 0.045
UUAGAA | 0.323 ± 0.038 | 1.913 ± 0.0022 | 0.278 ± 0.054 | 1.98 ± 0.038
GUAGCU | 0.643 ± 0.11 | 2.009 ± 0.01 | 0.287 ± 0.14 | 1.998 ± 0.0026
AUAUGA | 0.209 ± 0.013 | 1.976 ± 0.004 | 0.342 ± 0.096 | 2.01 ± 0.034
AUAUGG | 0.12 ± 0.066 | 1.867 ± 0.0088 | 0.307 ± 0.19 | 2 ± 0.034
GUAACC | 0.499 ± 0.17 | 2.059 ± 0.0095 | 0.419 ± 0.081 | 2.053 ± 0.017
UGUGGG | 0.109 ± 0.02 | 1.6031 ± 0.0006 | 0.695 ± 0.086 | 1.96 ± 0.017
UGUGGU | 0.0696 ± 0.063 | 1.89 ± 0.022 | 0.265 ± 0.0042 | 2 ± 0.054
UGUGGA | -0.112 ± 0.058 | 1.816 ± 0.0017 | 0.123 ± 0.11 | 2 ± 0.027

Variant | FACS-Seq fitted mean (log10) ((6R,S)-folinic acid [1]) | normalized RNA/DNA level without ligand (log10) ((6R,S)-folinic acid [2]) | FACS-Seq fitted mean (log10) ((6R,S)-folinic acid [3]) | normalized RNA/DNA level with ligand (log10) ((6R,S)-folinic acid [4])
AUACUC | 0.248 ± 0.028 | 2.049 ± 0.0056 | 0.188 ± 0.18 | 2.03 ± 0.037
CGUUAA | 0.362 ± 0.031 | 1.97 ± 0.016 | 0.486 ± 0.18 | 1.98 ± 0.025
CGUGGA | 0.378 ± 0.16 | 1.988 ± 0.014 | 0.668 ± 0.33 | 2.02 ± 0.043
GUAGGG | 0.666 ± 0.045 | 1.881 ± 0.0094 | 0.643 ± 0.24 | 1.99 ± 0.024
AUAGUA | 0.293 ± 0.042 | 1.93 ± 0.027 | 0.273 ± 0.21 | 1.97 ± 0.019
AUAGUG | 0.15 ± 0.12 | 1.59 ± 0.023 | 0.795 ± 0.071 | 1.93 ± 0.024
CGUAUU | -0.147 ± 0.033 | 2.034 ± 0.011 | 0.0205 ± 0.0068 | 2.03 ± 0.037
CGUAUA | 0.0787 ± 0.09 | 1.93 ± 0.025 | 0.189 ± 0.17 | 1.983 ± 0.016
UUAGCA | -0.108 ± 0.12 | 1.9803 ± 0.0011 | -0.232 ± 0.1 | 2.0126 ± 0.00039
AUAUAU | 0.272 ± 0.026 | 1.947 ± 0.011 | 0.459 ± 0.073 | 1.99 ± 0.02
AUAUAC | 0.205 ± 0.083 | 1.994 ± 0.015 | 0.279 ± 0.065 | 2 ± 0.041
AUAUAG | 0.309 ± 0.028 | 1.91 ± 0.021 | 0.295 ± 0.25 | 2 ± 0.022
UUAAGA | 0.166 ± 0.039 | 1.95 ± 0.024 | 0.272 ± 0.014 | 2.04 ± 0.029
UUAAGG | 0.0635 ± 0.0074 | 1.855 ± 0.0022 | 0.25 ± 0.22 | 1.98 ± 0.025
AUAAGU | 0.346 ± 0.17 | 1.88 ± 0.024 | 0.682 ± 0.15 | 2.01 ± 0.044
AUAAGG | 0.0495 ± 0.016 | 1.882 ± 0.011 | 0.356 ± 0.25 | 1.99 ± 0.012
AUAAGC | 0.38 ± 0.1 | 2.003 ± 0.0058 | 0.792 ± 0.04 | 2.02 ± 0.042
CUAAUA | 0.179 ± 0.11 | 1.974 ± 0.0043 | 0.335 ± 0.36 | 1.982 ± 0.007
AGUUCA | 0.161 ± 0.15 | 2.005 ± 0.006 | -0.01 ± 0.41 | 2.008 ± 0.012
UGUCCA | 0.433 ± 0.12 | 2.02 ± 0.025 | 0.395 ± 0.04 | 2.024 ± 0.014
UGUUCC | 0.382 ± 0.066 | 2.05 ± 0.023 | 0.146 ± 0.006 | 2.05 ± 0.062
UUACCC | 0.388 ± 0.015 | 2.018 ± 0.015 | 0.263 ± 0.21 | 2.01 ± 0.03
GGUAUG | 0.288 ± 0.015 | 1.986 ± 0.01 | 0.241 ± 0.14 | 2.01 ± 0.021
GGUAUA | 0.316 ± 0.031 | 1.987 ± 0.0071 | 0.271 ± 0.15 | 2 ± 0.032

Variant | FACS-Seq fitted mean (log10) ((6R,S)-folinic acid [1]) | normalized RNA/DNA level without ligand (log10) ((6R,S)-folinic acid [2]) | FACS-Seq fitted mean (log10) ((6R,S)-folinic acid [3]) | normalized RNA/DNA level with ligand (log10) ((6R,S)-folinic acid [4])
AUAAUA | 0.469 ± 0.017 | 1.982 ± 0.0023 | 0.369 ± 0.62 | 1.992 ± 0.015
GUAAUG | 0.394 ± 0.16 | 1.94 ± 0.023 | 0.532 ± 0.053 | 1.98 ± 0.038
GUAAUA | -0.154 ± 0.025 | 1.996 ± 0.006 | 0.161 ± 0.059 | 1.97 ± 0.039
GUAAUC | 0.0594 ± 0.051 | 2.09 ± 0.023 | -0.00665 ± 0.0039 | 2.063 ± 0.0092
UUAAAC | 0.248 ± 0.093 | 1.984 ± 0.0098 | 0.271 ± 0.092 | 1.99 ± 0.031
UUAAAA | 0.578 ± 0.062 | 1.9319 ± 0.0016 | 0.669 ± 0.26 | 1.966 ± 0.017
UUAAAG | 0.413 ± 0.085 | 1.822 ± 0.008 | 0.519 ± 0.17 | 1.94 ± 0.042
AUAUCC | 0.455 ± 0.027 | 2.0352 ± 0.00073 | 0.839 ± 0.019 | 2.03 ± 0.039
UUACUG | -0.466 ± 0.24 | 1.902 ± 0.011 | -0.804 ± 0.28 | 2.01 ± 0.066
GGUGGA | 0.534 ± 0.074 | 2.054 ± 0.01 | 0.58 ± 0.079 | 2.06 ± 0.062
UGUAUU | 0.438 ± 0.16 | 1.9737 ± 0.0017 | 0.253 ± 0.086 | 2.01 ± 0.032
UGUAUG | -0.0525 ± 0.085 | 1.707 ± 0.007 | 0.265 ± 0.086 | 1.96 ± 0.039
UGUAUC | -0.0452 ± 0.058 | 2.016 ± 0.019 | -0.247 ± 0.051 | 1.99 ± 0.028
GGUUAU | 0.612 ± 0.021 | 1.989 ± 0.019 | 0.481 ± 0.077 | 1.98 ± 0.023
GGUUAG | 0.215 ± 0.017 | 1.982 ± 0.016 | 0.245 ± 0.13 | 2 ± 0.035
UUAAUG | 0.316 ± 0.0067 | 1.819 ± 0.0065 | 0.461 ± 0.14 | 1.97 ± 0.012
UUAAUA | 0.0221 ± 0.032 | 2.006 ± 0.0071 | 0.171 ± 1.6 | 2.02 ± 0.022
AUACAG | 0.453 ± 0.1 | 1.9374 ± 0.0012 | 0.394 ± 0.44 | 2 ± 0.028
AUACAU | 0.534 ± 0.18 | 1.96 ± 0.022 | 0.452 ± 0.056 | 2.017 ± 0.02
AUACAA | 0.428 ± 0.07 | 1.974 ± 0.0047 | 0.215 ± 0.014 | 1.99 ± 0.035
CUAUAG | 0.0808 ± 0.1 | 1.915 ± 0.017 | 0.35 ± 0.15 | 2 ± 0.029
CGUUGC | 0.557 ± 0.049 | 2.02 ± 0.025 | 0.358 ± 0.33 | 2.02 ± 0.047
CUAGAU | 0.368 ± 0.079 | 1.957 ± 0.0032 | 0.387 ± 0.061 | 2 ± 0.028
